The values below come from paper PMC11834443, “Allosteric regulation of pyruvate kinase enables efficient and robust gluconeogenesis by preventing metabolic conflicts and carbon overflow” (mSystems, 2025).

Usually Ki stands for a dissociation constant, usually derived from enzyme kinetics or from competition with a known ligand. For orientation: Kd means the constant that tells how readily two partners part at equilibrium. Usually stoichiometry N stands for the number of molecules, sites or subunits per partner or assembly. What is called Km is the substrate concentration at which the rate is half of its maximum.

The target in data set [1] is T1, wild-type full length pyruvate kinase (WT Pyk) (Bacillus subtilis, UniProt P80885). As to the kind of experiment: LDH-coupled assay, NADH absorbance at […] nm. The format is biochemical.
The target in data set [2] is T1, wild-type full length pyruvate kinase (WT Pyk). It counts as biochemical.
Data set [3] has the same target. As to the kind of experiment: LDH-coupled assay, fit to nonessential activation equation. It counts as biochemical.
Data set [4] deals with the molecule itself. As to the kind of experiment: SEC; 100 µL of 100 µM protein on Superdex200 26/60; 20 mM Tris-Cl pH 7.5, 300 mM NaCl, 1 mM EDTA, 1 mM DTT, 10% glycerol; 3 mL/min, 4°C; mass from a standard curve of partition coefficients. (Size exclusion chromatography separates by hydrodynamic size, large species first.)
Substrate in data set [5]: Nc1ncnc2c1ncn2[C@@H]1O[C@H](COP(=O)(O)OP(=O)(O)O)[C@@H](O)[C@H]1O
As to the kind of experiment: purified protein. The following applies: pH 7.5.

`Nc1ncnc2c1ncn2[C@@H]1O[C@H](COP(=O)(O)OP(=O)(O)OP(=O)(O)O)[C@@H](O)[C@H]1O` [ATP] returned a Ki in data set [1] of 520 ± 50 µM.
For `Nc1ncnc2c1ncn2[C@@H]1O[C@H](COP(=O)(O)O)[C@@H](O)[C@H]1O` [AMP], the “LDH-coupled assay, NADH absorbance at 340 nm” value in data set [2] is “wild-type B. subtilis pyruvate kinase was activated by AMP or R5P (Fig. S3a)”.
With `O=P(O)(O)OC[C@H]1OC(O)[C@H](O)[C@@H]1O` (stereo partly shown) [R5P], binding in data set [3] was characterised by a dissociation constant (Kd) of 570 ± 40 µM.

B1: Bacillus subtilis pyruvate kinase lacking the extra C-terminal domain (residues 1-474) (domain or fragment, B. subtilis, UniProt P80885 1-474, looked up)
chain: MRKTKIVCTIGPASESIEMLTKLMESGMNVARLNFSHGDFEEHGARIKNIREASKKLGKNVGILLDTKGPEIRTHTMENGGIELETGKELIISMDEVVGTTDKISVTYEGLVHDVEQGSTILLDDGLIGLEVLDVDAAKREIKTKVLNNGTLKNKKGVNVPGVSVNLPGITEKDARDIVFGIEQGVDFIAPSFIRRSTDVLEIRELLEEHNAQDIQIIPKIENQEGVDNIDAILEVSDGLMVARGDLGVEIPAEEVPLVQKELIKKCNALGKPVITATQMLDSMQRNPRPTRAEASDVANAIFDGTDAIMLSGETAAGSYPVEAVQTMHNIASRSEEALNYKEILSKRRDQVGMTITDAIGQSVAHTAINLNAAAIVTPTESGHTARMIAKYRPQAPIVAVTVNDSISRKLALVSGVFAESGQNASSTDEMLEDAVQKSLNSGIVKHGDLIVITAGTVGESGTTNLMKVHTVGD
notes: pyruvate kinase (Pyk) of Bacillus subtilis, N-terminal residues 1-474, without the extra C-terminal domain (ECTD); in pLIC-trPC-HA (plasmid pJW724); This looks larger than untagged residues 1-474, although the methods say the His tag was removed with TEV protease; also called PykΔECTD; ΔECTD pyruvate kinase; source: E. coli BL21 (DE3), purified (HisTrap FF, TEV digestion, size-exclusion …)
As to B1, the “stoichiometry N” value in data set [4] came out at 4. Besides, in data set [5], the Km turned out to be 1830 ± 240 µM.

B2: Bacillus subtilis pyruvate kinase, wild-type full length (enzyme, B. subtilis, UniProt P80885 1-585, looked up)
chain: MRKTKIVCTIGPASESIEMLTKLMESGMNVARLNFSHGDFEEHGARIKNIREASKKLGKNVGILLDTKGPEIRTHTMENGGIELETGKELIISMDEVVGTTDKISVTYEGLVHDVEQGSTILLDDGLIGLEVLDVDAAKREIKTKVLNNGTLKNKKGVNVPGVSVNLPGITEKDARDIVFGIEQGVDFIAPSFIRRSTDVLEIRELLEEHNAQDIQIIPKIENQEGVDNIDAILEVSDGLMVARGDLGVEIPAEEVPLVQKELIKKCNALGKPVITATQMLDSMQRNPRPTRAEASDVANAIFDGTDAIMLSGETAAGSYPVEAVQTMHNIASRSEEALNYKEILSKRRDQVGMTITDAIGQSVAHTAINLNAAAIVTPTESGHTARMIAKYRPQAPIVAVTVNDSISRKLALVSGVFAESGQNASSTDEMLEDAVQKSLNSGIVKHGDLIVITAGTVGESGTTNLMKVHTVGDIIAKGQGIGRKSAYGPVVVAQNAKEAEQKMTDGAVLVTKSTDRDMIASLEKASALITEEGGLTSHAAVVGLSLGIPVIVGLENATSILTDGQDITVDASRGAVYQGRASVL
notes: This looks larger than the untagged protein, although the methods say the His tag was removed with TEV protease; also called WT Pyk; WT; source: E. coli BL21 (DE3), purified (HisTrap FF, TEV digestion, size-exclusion chromatography); not shown: His6, N-terminal, cleaved
Consider B2, for which the “stoichiometry N” value in data set [4] was determined as 4. Moreover, the Km in data set [5] was found to be 1010 ± 30 µM.
